Reference: patent US10822423 (TRUSTEES OF DARTMOUTH COLLEGE, dated 2020)
Each block holds one binder with its values, some of them ahead of it.

Target: T1, purified recombinant human CD40L (human, UniProt P29965 113-261, limits assumed)
T1 construct: also called hCD40L; CD154
T1 sequence (looked up): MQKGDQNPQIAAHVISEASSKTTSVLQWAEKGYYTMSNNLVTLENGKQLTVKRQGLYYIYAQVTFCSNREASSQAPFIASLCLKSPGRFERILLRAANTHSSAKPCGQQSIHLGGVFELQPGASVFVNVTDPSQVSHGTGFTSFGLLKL
Assay: ELISA: recombinant human CD40L coated, detected with mouse anti-human IgG then HRP goat anti-mouse IgG
Procedure: Both antibodies were purified by conventional methods and the binding activity of both recombinantly expressed antibodies to hCD40L was assayed. To measure anti-hCD40L variants binding to hCD40L, purified recombinant human CD40L was bound to a 96-well ELISA-grade plate. After blocking, anti-hCD40L variants were added followed by mouse anti-human IgG then horseradish peroxidase-labeled goat anti-mouse IgG. TMB color development was then quantitated at 450 nm by an ELISA reader.

binding result: binds
B1: Antibody A (anti-human CD40L IgG1 antibody with V215A and E269R mutations in the human IgG1 constant region) (antibody, V domains shown)
VH: EVQLQESGPGLVKPSETLSLTCTVSGDSITNGFWIWIRKPPGNKLEYMGYISYSGSTYYNPSLKSRISISRDTSKNQFSLKLSSVTAADTGVYYCACRSYGRTPYYFDFWGQGTTLTVSS
VL: DIVMTQSPSFLSASVGDRVTITCKASQNVITAVAWYQQKPGKSPKLLIYSASNRYTGVPDRFSGSGSGTDFTLTISSLQPEDFADYFCQQYNSYPYTFGGGTKLEIK
notes: Human IgG1 with V215A and E269R in the constant region, expressed in HEK-293 Freestyle cells; also called anti-hCD40L variant

binding result: binds
B2: Antibody B (anti-human CD40L IgG1 antibody with V215A, E269R and K322A mutations in the human IgG1 constant region) (antibody, V domains shown)
VH: B1 VH
VL: B1 VL
notes: Human IgG1 with V215A, E269R and K322A in the constant region, expressed in HEK-293 Freestyle cells; also called anti-hCD40L variant
